Experiment [1] has as its target endogenous Bcr-Abl of K562 cells (human leukemia Bcr-Abl+ cells; wild-type, unmutated) (human) (UniProt P11274).
In experiment [2] the target is p210 BCR-ABL1 T315I kinase domain mutant stably expressed in Ba/F3 cells (Homo sapiens (Human)) (UniProt P11274).
For experiment [3], the target named is p210 BCR-ABL1 E255V/T315I compound mutant stably expressed in Ba/F3 cells (Homo sapiens (Human)) (UniProt P11274).
Experiment [4] has as its target p210 Bcr-Abl (native, non-mutated) stably expressed in Ba/F3 cells (Homo sapiens (Human)) (UniProt P11274).
Experiment [5] deals with p210 BCR-ABL1 T315I kinase domain mutant stably expressed in Ba/F3 cells (Homo sapiens (Human)) (UniProt P11274). The source holds these as a separate data set.
Experiment [6] has as its target p210 BCR-ABL1 E255V kinase domain mutant stably expressed in Ba/F3 cells (Homo sapiens (Human)) (UniProt P11274).

B1: EGFP-CC^mut3 (expressed from pEGFP-CC^mut3) (designed binder)
chain: MVDPVGFAEAWKAQFPDSEPPRMELRSVGDIEQELERAEARIRRDEQRVNQERFRMIYLETLLAKEKKSYDR
For B1, the colony forming assay (transformative ability) of K562 cells (fold decrease) in experiment [1] came out at 3. In experiment [2], this molecule gave a colony forming assay (transformative ability) of Ba/F3-p210-T315I cells of 40%.

B2: mCherry-CC^mut3 fusion (expressed from pmCherry-CC^mut3) (designed binder)
chain: MVDPVGFAEAWKAQFPDSEPPRMELRSVGDIEQELERAEARIRRDEQRVNQERFRMIYLETLLAKEKKSYDR
B2 yielded a colony formation assay of Ba/F3 cells expressing BCR-ABL1 E255V/T315I in experiment [3] of 50%. Moreover, in experiment [4], the apoptosis (Annexin V / 7-AAD, 72 h) of Ba/F3 cells expressing native BCR-ABL1 (fold increase) stood at 3 and the cell proliferation (MTS assay) of Ba/F3 cells expressing native BCR-ABL1 (fold reduction) is > 2. Besides, in experiment [5], the cell proliferation (MTS assay) of Ba/F3 cells expressing BCR-ABL1 T315I (fold reduction) is 3 and the colony formation assay of Ba/F3 cells expressing BCR-ABL1 T315I (fold reduction) is > 10. For the same molecule, in experiment [6], the cell proliferation (MTS assay) of Ba/F3 cells expressing BCR-ABL1 E255V (fold reduction) turned out to be 3 and the colony formation assay of Ba/F3 cells expressing BCR-ABL1 E255V (fold reduction) was > 10.

Source of the values: patent publication US20170174750A1.
